# Assay results: the domain aggregation screens of Martell et al. (2025)
# Experiment: soluble fraction after stress (log2 fold change); higher = more stays soluble; pooled small domains, quantitative proteomics
# Conditions: stress: pH 4
# Outline: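 Custom libraries of small protein domains were pooled and exposed to pH 4. High-throughput quantitative proteomics then measured the log2 fold change in the amount of each domain still soluble, with higher values meaning more stayed soluble. This soluble-fraction fold change stands for aggregation propensity.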
row,Sequence,soluble fraction (log2)
1,HMTGKLGKIILQPKQTVYGITKKYQISESELRRLNPQLDSHLKIGDEVILPAENIKKFGGNQPVAVS,≥ 0.43
2,HMVVVPPPATPKPGDVTGDNKINGYDLSILLSNWKRPGATLAQGDLNKDGVVNGLDLSIMLLNWG,0.0857
3,HMVGADTISDLISQRGRMIGDKPITNAVIKSGSEFSTINALSKAIASGDARTNDVEGMKPVFR,-0.0241
4,HMESIAEIDRMNAKIFMDEFQDSLSIMQKTTNPETFFSRYDLAMERLDNMVELQQKGIKFTSDLSSLKAQ,-0.564
5,HMATSLTEQEKLIFGLLKKQSPIELSSLKEQAGLSNKKWDKAIKGLSTQQLAKVTKTENGLFVHLLQ,0.12
6,HMRVKLVKKSILASGGENIRVDKFLSNHILTMTRTQIKKLFLDGLVQVNKSFVKPGSILKGNEIITFSIPE,-0.412
7,HMAGASQAVKAQLRLREMILAGELPGGARIAELTLVEKLGVSRTPIRAALMRLEQEGLLHRLPGGGYAVRT,-0.41
8,HMSAEVSEIEIQRIISYYRNQNGVPDKYNEIFDRIAAQYTDEQLKVISNFLPSDVKQYLSFNNEKYKSLG,-0.955
9,HMVSATKAFVNGGNIVVSSPKATRVAVYNVAGQKVAEQAFAGKATIKASDFAKGIYVLKFNDNTVLKLT,-0.0226
10,HMDKLSYALGLSMGHNFLGSGIKSLNVEDFAKGVEAVYKQEKPEISFDEAKKIINEFFSNLQDEIAE,-1.33
11,HMDLEMLEVEDTIKDLLSQHQKINAIKYYRNYMSEQLNVDMGLRQAKDTIDAIGRGATVDLSVGY,-0.783
